# Data published in patent publication US20210292396A1.
# Values joined by “and” are separate entries in the source; they are usually repeats but may differ in a detail not shown here. Identical values can stand only once.
# Biological target: gp120 (isolate: 92BR020) (HIV)
row,Substance,EC50 (read off the curve)
1,2G12 (antibody),0.07 µg/mL
2,PGT128 (antibody),0.05 µg/mL
3,PGT135 (antibody),0.05 µg/mL and 0.1 µg/mL
4,VRC01 (antibody),0.07 µg/mL
